Patent publication US8349318B2, “Use of specifically engineered enzymes to enhance the efficacy of prodrugs” (The Board of Trustees of the University of Illinois, priority 2008, dated 2013)
Like-named read-outs stand apart in the source and are kept apart here.

Experiments:
NB4 cell line = test: Apoptosis assay in CD33 positive NB4 cells; format: cell-based; conditions: NB4, AraC 250 nM, after 96 hours
Protocol: The NB4 cells were also treated with AraC, the HuM195-dCK conjugate, or the combination of HuM195-dCK and the AraC, and an apoptosis assay was performed as above. The AraC dose used, however, was decreased from 1000 nM to 250 nM. The results were similar to those observed in the HL60 cells (FIG. 8). The conjugate with AraC (right bars) achieve ˜65% cell killing after 96 hours, whereas AraC alone was below 40%.

HL60 cell line = test: Apoptosis assay (Annexin V and PI staining) in CD33 positive HL60 cells; format: cell-based, human; conditions: HL60, AraC at 1 μM, after 96 hours
Protocol: The HuM195 antibody will only bind and internalize to cells expressing CD33. Thus, the HL60 cell line (derived from AML cells) and the NB4 cell line, which are CD33 positive, were used to test the activity of the HuM195-dCK system in live cells. The cells were treated with AraC, the HuM195-dCK conjugate, or the combination of HuM195-dCK and the AraC. Annexin V and propidium iodide (PI) staining was used to identify apoptotic cells. […] The combination of AraC with the conjugate results in 20% more killing than AraC alone.

parent 293 cells = test: Proliferation of parental 293 cells treated with nucleoside analogs; format: cell-based, human
Protocol: Next, whether the dCK-S74E/R104M/D133A variant could inhibit cell growth in the presence of NAs including BVdU was tested. Human 293 cells were stably transfected with a recombinant expression construct encoding the dCK-S74E/R104M/D133A protein. The proliferative capacity of the stably transfected cell line was compared to the parental 293 cells after treating the cells with several nucleoside analogs such as AraC, gemcitabine, and BVdU. Since some of the nucleosides were first dissolved in the solvent DMSO, equal amounts of DMSO were used as control.

SKBR-3 = test: MTS cytotoxicity assay in breast cancer-derived cell line; format: cell-based, human; conditions: SKBR-3, 96 hours
Protocol: The cells were then exposed to varying amount of BVdU for 96 hours. […] Cell viability was measured using the MTS cytotoxicity assay according to the manufacturer's instructions (Promega). […] MTS was reduced by cellular dehydrogenase into formazan, which is soluble in tissue culture medium. […] Since the production of formazan is proportional to the number of living cells, the intensity of the produced color is a good indication of the viability of the cells.

Wild Type dCK [1] = biological target: T1, Wild Type dCK (Homo sapiens, UniProt P27707); test: Steady-state kinetic (colorimetric, enzyme-coupled) assay of nucleoside phosphorylation by wild type dCK; conditions: for Km / kcat: Wild Type dCK, 0.4 μM dCK, 1 mM ATP.Mg, 37° C.
Wild Type dCK [2] = biological target: T1, Wild Type dCK; parameters: The electron density for dCK extended to the last residue (Leu260), while the N-terminus (residues 1 to 19) was flexible; His-tag (N); made in house; host or cells: E. coli BL21(DE3); conditions: Lotfi et al., 1999; Mansson et al., 2003; cited from earlier work
A100V/R104M/D133A-dCK = biological target: T2, A100V/R104M/D133A-dCK (Homo sapiens, UniProt P27707, A100V/D133A/R104M); test: Steady-state kinetic assay of nucleoside phosphorylation by A100V/R104M/D133A-dCK; format: biochemical
T2 construct: His-tag (N); made in house

[3] = Kinetic characterization of dCK variants, substrate L-dT; format: biochemical; conditions: for rate of phosphorylation, L-dT: Table 8, nucleoside 200 mM, ATP 1 μM [sic]; for kobs L-dT: nucleoside concentration of 200 μM, ATP 1 mM; for Rel kobs (L-dT): relative to WT
[4] = Kinetic characterization of dCK variants, substrate AraC; format: biochemical; conditions: for kobs AraC: nucleoside concentration of 200 μM, ATP 1 mM; for Rel kobs (AraC): relative to WT
[5] = Kinetic characterization of dCK variants, substrate D-dA; format: biochemical; conditions: for kobs D-dA: nucleoside concentration of 200 μM, ATP 1 mM; for Rel kobs (D-dA): relative to WT
[6] = Kinetic characterization of dCK variants, substrate gemcitabine; format: biochemical; conditions: for kobs Gem: nucleoside concentration of 200 μM, ATP 1 mM; for rate of phosphorylation, Gem: Table 8, nucleoside 200 mM, ATP 1 μM [sic]; for Rel kobs (Gem): relative to WT
[7] = Kinetic characterization of dCK variants, substrate D-dC; format: biochemical; conditions: for rate of phosphorylation, D-dC: Table 8, nucleoside 200 mM, ATP 1 μM [sic]; for kobs D-dC: nucleoside concentration of 200 μM, ATP 1 mM; for Rel kobs (D-dC): relative to WT
[8] = Kinetic characterization of dCK variants, substrate D-dG; format: biochemical; conditions: for rate of phosphorylation, D-dG: Table 8, nucleoside 200 mM, ATP 1 μM [sic]; for kobs D-dG: nucleoside concentration of 200 μM, ATP 1 mM; for Rel kobs (D-dG): relative to WT
[9] = Kinetic characterization of dCK variants, substrate D-dT; format: biochemical; conditions: for rate of phosphorylation, D-dT: Table 8, nucleoside 200 mM, ATP 1 μM [sic]; for kobs D-dT: nucleoside concentration of 200 μM, ATP 1 mM; for Rel kobs (D-dT): relative to WT
[10] = Kinetic analysis of dCK variants, substrate L-dU; format: biochemical; conditions: Table 8; nucleoside 200 mM, ATP 1 μM [sic]
Protocol: In a separate experiment, those mutant dCKs were analyzed in the presence of a nucleoside substrate at a concentration of 200 mM, and a phosphoryl donor ATP at a concentration of 1 μM.

[11] = Iyidogan, et al., 2008; read-out: Km for D-dT; cited from earlier work
[12] = McSorley et al., 2008; cited from earlier work

| Compound | rate of phosphorylation, L-dT [3] [s⁻¹] | kobs L-dT [3] [s⁻¹] | kobs AraC [4] | kobs D-dA [5] [s⁻¹] | kobs Gem [6] [s⁻¹] | rate of phosphorylation, D-dC [7] [s⁻¹] | kobs D-dC [7] | rate of phosphorylation, D-dG [8] [s⁻¹] | kobs D-dG [8] [s⁻¹] | rate of phosphorylation, D-dT [9] [s⁻¹] | kobs D-dT [9] | rate of phosphorylation, Gem [6] [s⁻¹] | other results |
| --- | --- | --- | --- | --- | --- | --- | --- | --- | --- | --- | --- | --- | --- |
| Nc1ccn([C@@H]2O[C@H](CO)[C@@H](O)[C@@H]2O)c(=O)n1 [Ara-C, 1-β-D-arabinofuranosylcytosine] |  |  |  |  |  |  |  |  |  |  |  |  | cell killing (NB4 cell line): below 40%; cell death (apoptotic cells) (HL60 cell line): ~50%; inhibition of growth (parent 293 cells; 1 μM): no inhibitory effect |
| O=c1[nH]c(=O)n([C@H]2C[C@H](O)[C@@H](CO)O2)cc1/C=C/Br [BVdU, (E)-5-(2-bromovinyl)-2′-deoxyuridine] |  |  |  |  |  |  |  |  |  |  |  |  | effect on cell viability / proliferation (SKBR-3): no detrimental effect; inhibition of growth (parent 293 cells; highest tested concentration of 50 μM): did not inhibit the growth |
| Nc1nc2c(ncn2[C@H]2C[C@H](O)[C@@H](CO)O2)c(=O)[nH]1 [D-dG, deoxyguanosine] |  |  |  |  |  |  |  |  |  |  |  |  | kcat, Wild-type (Wild Type dCK [1]; Table 9): ~2.5 s⁻¹ |
| Nc1nc(Cl)nc2c1ncn2[C@@H]1O[C@H](CO)[C@@H](O)[C@@H]1F [clofarabine, 2-chloro-2′-arabino-fluoro-2′-deoxyadenosine] |  |  |  |  |  |  |  |  |  |  |  |  | efficiency as substrate for dCK relative to cladribine (Wild Type dCK [2]): ~3 fold |
| Nc1ccn([C@H]2CC[C@@H](CO)O2)c(=O)n1 [ddC, 2′,3′-dideoxycytidine] |  |  |  |  |  |  |  |  |  |  |  |  | Km (Wild Type dCK [1]): 407 µM; kcat (Wild Type dCK [1]): 0.18 s⁻¹ |
| Nc1ccn([C@@H]2O[C@H](CO)[C@@H](O)C2(F)F)c(=O)n1 [gemcitabine, 2′,2′-difluorodeoxycytidine] |  |  |  |  |  |  |  |  |  |  |  |  | Km (A100V/R104M/D133A-dCK): 50 µM; kcat (A100V/R104M/D133A-dCK): 3.52 s⁻¹; Km (Wild Type dCK [1]): 22 µM; kcat (Wild Type dCK [1]): 0.37 s⁻¹; higher enzymatic efficiency compared to dC (Wild Type dCK [1]; wild type dCK): ~4 fold; increase in kcat compared to dC (Wild Type dCK [1]; wild type dCK): 10 fold; inhibition at 1 µM (parent 293 cells; Homo sapiens, HEK293, 1 μM, read-out: inhibition of growth): 75% |
| R104F/D133A: human dCK mutant, phenylalanine at position 104, D133A | 0.02 | <0.005 | <0.005 s⁻¹ | <0.005 | <0.005 | 0.02 | <0.005 s⁻¹ | 0.02 | <0.005 | 0.02 | <0.005 s⁻¹ |  |  |
| R104I/D133A: modified human dCK, isoleucine at position 104, alanine at position 133, SEQ ID NO:12 | 0.19 | 0.19 ± 0.02 | 0.07 ± 0.01 s⁻¹ | 0.21 ± 0.01 | 0.21 ± 0.08 | 0.06 | 0.06 ± 0.01 s⁻¹ | 0.08 | 0.08 ± 0.01 | 0.4 | 0.40 ± 0.01 s⁻¹ | 0.21 | Rel kobs (L-dT) [3]: 10; Rel kobs (AraC) [4]: 0.25; Rel kobs (D-dA) [5]: 0.18; Rel kobs (Gem) [6]: 0.53; rate of phosphorylation, L-dU [10]: 0.4 s⁻¹; Rel kobs (D-dC) [7]: 2; Rel kobs (D-dG) [8]: 0.08; Rel kobs (D-dT) [9]: 50 |
| R104K/D133A: human dCK mutant, lysine at position 104, D133A |  | <0.005 | <0.005 s⁻¹ | <0.005 | <0.005 |  | <0.005 s⁻¹ |  | <0.005 |  | <0.005 s⁻¹ |  |  |
| R104L/D133A: modified human dCK, leucine at position 104, alanine at position 133, SEQ ID NO:10 | 1.07 | 1.07 ± 0.09 | 0.64 ± 0.06 s⁻¹ | 3.45 ± 0.16 | 2.04 ± 0.03 | 0.27 | 0.27 ± 0.09 s⁻¹ | 0.3 | 0.30 ± 0.01 | 2.86 | 2.86 ± 0.09 s⁻¹ | 2.04 | Rel kobs (L-dT) [3]: 63; Rel kobs (AraC) [4]: 0.35; Rel kobs (D-dA) [5]: 2.9; Rel kobs (Gem) [6]: 5.20; rate of phosphorylation, L-dU [10]: 2.56 s⁻¹; Rel kobs (D-dC) [7]: 9; Rel kobs (D-dG) [8]: 0.32; Km [9]: < 25 µM; Rel kobs (D-dT) [9]: 358 |
| R104Q/D133A: modified human dCK, glutamine at position 104, alanine at position 133, SEQ ID NO:8 | 0.15 | 0.15 ± 0.02 | 0.18 ± 0.01 s⁻¹ | 0.18 ± 0.04 | 0.17 ± 0.04 | 0.08 | 0.08 ± 0.01 s⁻¹ | 0.06 | 0.06 ± 0.01 | 0.1 | 0.10 ± 0.06 s⁻¹ | 0.17 | Rel kobs (L-dT) [3]: 9; Rel kobs (AraC) [4]: 0.60; Rel kobs (D-dA) [5]: 0.15; Rel kobs (Gem) [6]: 0.43; rate of phosphorylation, L-dU [10]: 0.14 s⁻¹; Rel kobs (D-dC) [7]: 2.7; Rel kobs (D-dG) [8]: 0.06; Rel kobs (D-dT) [9]: 12.5 |
| R104Q: human dCK variant of Table 8 with Q at position 104 and unchanged D133 | 0.06 |  |  |  |  | 0.07 |  | 0.06 |  | 0.05 |  | 0.06 | rate of phosphorylation, L-dU [10]: 0.06 s⁻¹ |
| R104V/D133A: human dCK mutant, valine at position 104, D133A | 0.05 | <0.005 | <0.005 s⁻¹ | <0.005 | <0.005 | 0.03 | <0.005 s⁻¹ | 0.03 | <0.005 | 0.04 | <0.005 s⁻¹ |  |  |
| WT: wild type human deoxycytidine kinase, SEQ ID NO:1 [reference compound] |  | 0.017 ± 0.023 | 0.30 ± 0.04^b sec^−1 | 1.19 ± 0.01 | 0.39 ± 0.01 | 0.03 | 0.03 ± 0.01^b sec^−1 | 0.94 | 0.94 ± 0.18 |  | 0.008 ± 0.001^b sec^−1 | 0.39 | Rel kobs (L-dT) [3]: 1; Rel kobs (AraC) [4]: 1.00; Rel kobs (D-dA) [5]: 1; Rel kobs (Gem) [6]: 1.00; Km [11]: > 3000 µM; Rel kobs (D-dC) [7]: 1; Rel kobs (D-dG) [8]: 1; Rel kobs (D-dT) [9]: 1 |
| dCK S74E: dCK S74E mutant mimicking the Ser74 phosphorylated state [reference compound] |  |  |  |  |  |  |  |  |  |  |  |  | increase of the rate of phosphorylation of dC [12]: 11 fold |
